This passage reports stoichiometry N results from publication PMC8386582.

The term stoichiometry N denotes the number of molecules, sites or subunits per partner or assembly.

The target in the assay is aCD19A (anti-CD19-A192) Nanoworm. The assay is described as follows: SEC-MALS. For orientation: In gel filtration, larger molecules generally elute earlier.

B1: aCD19A (anti-CD19-A192) Nanoworm (scFv, V domains shown)
VH: QVQLQQSGAELVRPGSSVKISCKASGYAFSSYWMNWVKQRPGQGLEWIGQIWPGDGDTNYNGKFKGKATLTADESSSTAYMQLSSLASEDSAVYFCARRETTTVGRYYYAMDYWGQGTTVTVSS
VL: DIQLTQSPASLAVSLGQRATISCKASQSVDYDGDSYLNWYQQIPGQPPKLLIYDASNLVSGIPPRFSGSGSGTDFTLNIHPVEKVDAATYHCQQSTEDPWTFGGGTKLEIK
Regarding B1, the stoichiometry N was determined as 186.
